Measurements reported in patent publication US20050002917A1 (UNIVERSITY OF MASSACHUSETTS, published 2005).

Target: T1, 35S-methionine-luciferase (in vitro translated from the Promega luciferase control plasmid) (UniProt P08659 1-550 = luciferase, 35S-methionine label)
T1 construct: Control protein in the pull-down; also called control protein luciferase
Assay: GST pull-down of 35S-labelled protein on glutathione-Sepharose 4B beads, SDS/PAGE and autoradiography
Method: The CaM kinase II domain of mCASK-C cDNA was amplified by PCR and cloned in frame into SmaI of pGEX-2T and transformed into E. coli BL21 cells. […] For pull-down assays, radiolabeled Acheron and luciferase was produced from pET-25b(+)-Acheron and luciferase controlled plasmid (Promega) by using in vitro TNT Quick Coupled Transcription/Translation System (Promega) with ³⁵S-methionine as the sole source of methionine, following the manufacture's instructions. 5 μl of ³⁵S-methionine-Acheron and ³⁵S-methionine-luciferase were incubated with equal amount of GST or GST-mCASK-C (CaM kinase II domain) bound to glutathione-Sepharose 4B beads, respectively, under constant rocking for 45 minutes in 2 ml of NETN binding buffer. ³⁵S-methionine-luciferase and GST were used as the controls in the binding assays. The Sepharose beads were pelleted and washed extensively with the binding buffer and were analyzed by SDS/PAGE and autoradiography.
To further confirm the physical interaction between Acheron and mCASK-C, an in vitro protein binding assay was performed. […] The beads were pelleted and washed extensively and the bound protein complex was resolved by SDS/PAGE and detected by autoradiography.

T1 sequence (P08659 whole entry): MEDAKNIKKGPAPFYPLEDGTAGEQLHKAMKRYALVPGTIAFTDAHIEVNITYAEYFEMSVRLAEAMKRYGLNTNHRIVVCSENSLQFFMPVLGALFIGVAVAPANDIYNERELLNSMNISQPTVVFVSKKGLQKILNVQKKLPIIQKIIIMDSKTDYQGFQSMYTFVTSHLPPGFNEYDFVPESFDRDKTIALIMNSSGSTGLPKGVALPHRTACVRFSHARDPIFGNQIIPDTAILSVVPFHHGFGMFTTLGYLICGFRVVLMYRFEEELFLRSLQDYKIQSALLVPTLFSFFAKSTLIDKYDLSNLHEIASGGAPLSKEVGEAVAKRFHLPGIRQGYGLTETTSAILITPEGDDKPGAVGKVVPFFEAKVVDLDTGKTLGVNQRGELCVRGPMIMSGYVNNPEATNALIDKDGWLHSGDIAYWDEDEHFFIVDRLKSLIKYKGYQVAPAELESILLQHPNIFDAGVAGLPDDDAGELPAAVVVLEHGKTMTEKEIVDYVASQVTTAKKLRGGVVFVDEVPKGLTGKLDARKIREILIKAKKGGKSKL

B1: GST-mCASK-C (CaM kinase II domain from amino acid 1 to 339) (other)
chain: MADDDVLFEDVYELCEVIGKGPFSVVRRCINRETGQQFAVKIVDVAKFTSSPGLSTEDLKREASICHMLKHPHIVELLETYSSDGMLYMVFEFMDGADLCFEIVKRADAGFVYSEAVASHYMRQILEALRYCHDNNIIHRDVKPHCVLLASKENSAPVKLGGFGVAIQLGESGLVAGGRVGTPHFMAPEVVKREPYGKPVDVWGCGVILFILLSGCLPFYGTKERLFEGIIKGKYKMNPRQWSHISESAKDLVRRMLMLDPAERITVYEALNHPWLKERDRYAYKIHLPETVEQLRKFNARRKLKGAVLAAVSSHKFNSFYGDPPEELPDFSEDPTSSG
notes: Expressed in E. coli BL21 and immobilised on glutathione-Sepharose 4B beads; not shown: glutathione S-transferase from vector pGEX-2T
binding result: no binding
